From article PMC8810680 (Nature chemical biology, 2021)
Several values for one entry are separate records, joined by “and”; a condition that tells them apart may be missing. Identical values can stand only once. Blank lines part the entries; values can stand above or below the compound they belong to.

Columns and labels:
GudB6-GltA2B2 = GudB6-GltA2B2 (Bacillus subtilis, UniProt O34399+P39812); assay: cryo-EM structure, […] A; assay type: binding; conditions: co-purified
[1] = biological target: glutamate dehydrogenase GudB (untagged, in B. subtilis NCIB 3610) (B. subtilis (endogenous in strain NCIB 3610)); assay: cryo-EM structure
[2] = biological target: recombinant 6X His-tagged GudB (B. subtilis); assay: native MS
[3] = biological target: glutamate dehydrogenase GudB (untagged, in B. subtilis NCIB 3610) (B. subtilis (endogenous in strain NCIB 3610)); assay: native MS
[4] = biological target: TwinStrep-tagged GltB (B. subtilis) (UniProt O34399); assay: mass photometry
[5] = biological target: recombinant 6X His-tagged GudB (B. subtilis); assay: cryo-EM structure
[6] = biological target: recombinant Strep-tagged GudB (B. subtilis); assay: native MS

Chain of GudB6-GltA2B2 (P39812 22-1520): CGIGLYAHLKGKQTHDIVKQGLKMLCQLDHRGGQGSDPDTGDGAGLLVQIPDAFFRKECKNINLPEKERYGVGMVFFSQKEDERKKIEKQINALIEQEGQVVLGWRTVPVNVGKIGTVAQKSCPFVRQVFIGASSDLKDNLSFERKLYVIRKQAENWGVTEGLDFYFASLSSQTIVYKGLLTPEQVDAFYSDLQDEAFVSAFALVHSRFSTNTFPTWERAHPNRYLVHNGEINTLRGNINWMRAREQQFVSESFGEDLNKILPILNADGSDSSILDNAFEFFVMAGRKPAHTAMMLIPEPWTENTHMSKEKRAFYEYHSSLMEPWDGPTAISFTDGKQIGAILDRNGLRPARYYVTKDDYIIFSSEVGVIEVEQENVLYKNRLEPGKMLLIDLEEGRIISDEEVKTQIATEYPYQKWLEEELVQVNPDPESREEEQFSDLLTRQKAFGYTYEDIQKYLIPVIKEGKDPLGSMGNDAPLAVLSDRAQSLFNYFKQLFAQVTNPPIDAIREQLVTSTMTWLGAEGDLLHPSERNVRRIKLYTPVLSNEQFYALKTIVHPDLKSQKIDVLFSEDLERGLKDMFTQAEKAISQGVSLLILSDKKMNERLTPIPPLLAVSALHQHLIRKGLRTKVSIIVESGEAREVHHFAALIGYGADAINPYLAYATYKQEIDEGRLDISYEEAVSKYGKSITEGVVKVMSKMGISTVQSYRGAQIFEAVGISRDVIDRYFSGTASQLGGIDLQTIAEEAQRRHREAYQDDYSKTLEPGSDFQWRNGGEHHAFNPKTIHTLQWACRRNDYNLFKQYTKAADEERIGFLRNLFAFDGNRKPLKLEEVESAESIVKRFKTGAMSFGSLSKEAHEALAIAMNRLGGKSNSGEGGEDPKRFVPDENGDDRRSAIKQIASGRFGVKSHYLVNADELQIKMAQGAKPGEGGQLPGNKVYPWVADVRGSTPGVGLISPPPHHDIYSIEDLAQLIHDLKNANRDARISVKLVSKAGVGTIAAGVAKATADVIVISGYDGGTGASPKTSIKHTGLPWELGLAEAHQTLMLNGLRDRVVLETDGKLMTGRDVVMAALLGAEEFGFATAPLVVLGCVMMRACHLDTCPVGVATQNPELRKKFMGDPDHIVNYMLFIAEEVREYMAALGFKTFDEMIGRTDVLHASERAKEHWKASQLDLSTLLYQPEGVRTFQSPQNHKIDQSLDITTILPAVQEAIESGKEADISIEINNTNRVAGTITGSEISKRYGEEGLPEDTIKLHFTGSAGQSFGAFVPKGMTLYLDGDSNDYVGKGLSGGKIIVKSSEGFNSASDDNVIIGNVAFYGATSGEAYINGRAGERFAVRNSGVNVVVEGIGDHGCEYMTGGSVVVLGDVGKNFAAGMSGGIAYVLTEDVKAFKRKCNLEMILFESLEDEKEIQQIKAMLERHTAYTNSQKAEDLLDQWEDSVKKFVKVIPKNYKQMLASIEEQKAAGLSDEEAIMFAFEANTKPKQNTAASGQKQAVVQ
Chain of GudB6-GltA2B2 (O34399 whole entry): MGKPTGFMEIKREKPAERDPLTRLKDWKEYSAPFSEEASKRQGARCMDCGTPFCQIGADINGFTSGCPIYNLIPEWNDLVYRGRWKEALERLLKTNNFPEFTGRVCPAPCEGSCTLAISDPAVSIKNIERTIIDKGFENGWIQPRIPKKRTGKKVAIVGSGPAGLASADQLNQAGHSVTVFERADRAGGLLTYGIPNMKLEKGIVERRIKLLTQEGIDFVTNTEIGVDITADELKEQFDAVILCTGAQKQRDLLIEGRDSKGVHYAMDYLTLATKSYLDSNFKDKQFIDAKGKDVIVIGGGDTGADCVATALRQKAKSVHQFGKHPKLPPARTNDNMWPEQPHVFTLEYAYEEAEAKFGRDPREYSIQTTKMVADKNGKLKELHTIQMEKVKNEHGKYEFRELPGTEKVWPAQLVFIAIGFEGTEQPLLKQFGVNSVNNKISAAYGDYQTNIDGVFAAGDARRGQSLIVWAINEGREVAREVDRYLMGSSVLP
Chain of GudB6-GltA2B2 (A0A0C3GZC9 1-424 partner): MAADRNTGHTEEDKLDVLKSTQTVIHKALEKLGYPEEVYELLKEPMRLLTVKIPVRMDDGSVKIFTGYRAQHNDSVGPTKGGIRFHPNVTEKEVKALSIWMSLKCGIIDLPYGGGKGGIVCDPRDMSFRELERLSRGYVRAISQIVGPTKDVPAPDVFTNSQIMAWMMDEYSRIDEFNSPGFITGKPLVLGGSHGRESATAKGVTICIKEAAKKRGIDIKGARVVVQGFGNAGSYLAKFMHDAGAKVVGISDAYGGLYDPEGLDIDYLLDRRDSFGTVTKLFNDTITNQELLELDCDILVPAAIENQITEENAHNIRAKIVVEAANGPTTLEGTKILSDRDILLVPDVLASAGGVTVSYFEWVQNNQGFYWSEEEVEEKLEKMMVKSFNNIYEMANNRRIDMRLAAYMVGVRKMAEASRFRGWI
Chain of recombinant 6X His-tagged GudB (B. subtilis) (P50735 whole entry): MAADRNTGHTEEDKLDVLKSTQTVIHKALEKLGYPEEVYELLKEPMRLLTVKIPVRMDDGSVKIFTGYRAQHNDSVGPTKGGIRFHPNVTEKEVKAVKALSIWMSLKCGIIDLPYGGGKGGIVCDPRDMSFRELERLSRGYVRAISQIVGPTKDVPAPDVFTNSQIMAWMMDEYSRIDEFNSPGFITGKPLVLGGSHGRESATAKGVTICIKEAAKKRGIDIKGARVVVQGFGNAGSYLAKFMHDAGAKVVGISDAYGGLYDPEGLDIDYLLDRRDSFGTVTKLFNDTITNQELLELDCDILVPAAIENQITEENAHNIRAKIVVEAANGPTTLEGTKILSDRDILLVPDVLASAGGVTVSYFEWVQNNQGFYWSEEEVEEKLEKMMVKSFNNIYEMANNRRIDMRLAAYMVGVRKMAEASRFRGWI
Chain of TwinStrep-tagged GltB (B. subtilis) (O34399 whole entry): as the sequence (O34399 whole entry) above
Chain of glutamate dehydrogenase GudB (untagged, in B. subtilis NCIB 3610) (B. subtilis (endogenous in strain NCIB 3610)) (P50735 whole entry): as the sequence (P50735 whole entry) above
Chain of glutamate dehydrogenase GudB (untagged, in B. subtilis NCIB 3610) (enzyme) (P50735 whole entry): as above
Chain of recombinant 6X His-tagged GudB (enzyme) (P50735 whole entry): as above
Chain of recombinant Strep-tagged GudB (enzyme) (P50735 whole entry): as above

Compound: [S]12[Fe]3[S]4[Fe]1[S]1[Fe]2[S]3[Fe]41 [4Fe-4S cluster]
- cryo-EM structure, 2.4 A (GudB6-GltA2B2; two clusters, site in GltB): unambiguous assignment of two 4Fe-4S clusters in GltB

Compound: Cc1cc2nc3c(=O)[nH]c(=O)nc-3n(C[C@H](O)[C@H](O)[C@H](O)COP(=O)(O)OP(=O)(O)OC[C@H]3O[C@@H](n4cnc5c(N)ncnc54)[C@H](O)[C@@H]3O)c2cc1C [FAD]
- cryo-EM structure, 2.4 A (GudB6-GltA2B2; listed among GltAB cofactors in the figure legend only): The co-factors in GltAB: FAD, two 4Fe-4S clusters (SF4), 3Fe-4S cluster (F3S) and FMN

Compound: recombinant 6X His-tagged GudB (enzyme)
- stoichiometry N [5]: 6

Compound: recombinant Strep-tagged GudB (enzyme)
- stoichiometry N [6]: 6

Results, then the compound that gave them:

- cryo-EM structure, 2.4 A (GudB6-GltA2B2; site in GltA): a 3Fe-4S clusters and FMN in GltA
Compound: Cc1cc2nc3c(=O)[nH]c(=O)nc-3n(C[C@H](O)[C@H](O)[C@H](O)COP(=O)(O)O)c2cc1C [FMN]

- stoichiometry N [1]: 6
Compound: glutamate dehydrogenase GudB (untagged, in B. subtilis NCIB 3610) (enzyme)

- stoichiometry N (GltAB heterodimers per GudB hexamer) [2]: 3 and 6
- stoichiometry N (GltAB heterodimers per GudB hexamer) [3]: 6
- percent of counts as GltAB, no ligand [4]: 5 % of counts
- percent of counts as GltAB, with AKG [4]: 12 % of counts
- percent of counts as GltAB, with AKG and NADPH [4]: 16 % of counts
- stoichiometry N (GltAB heterodimers per GudB hexamer) [5]: 2 to 4
- stoichiometry N (GltAB heterodimers per GudB hexamer) [1]: 6
Compound: glutamate synthase subunit GltA (from UniProt P39812 1-1520) (enzyme)
